Experiments:
[1] = molecular target: Sialic acid-binding immunoglobulin-like lectin 8 (SIGLEC-8), antigen of the Carterra SPR studies (UniProt Q9NYZ4 17-363, limits assumed); experiment: Carterra SPR
Procedure, shortened: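 Antibodies came from synthetic antibody libraries, panned over four rounds with a bead-based strategy and screened by clonal ELISA. Chosen clones were expressed and purified before testing. Their binding kinetics to SIGLEC-8 were then measured by surface plasmon resonance on a Carterra instrument, giving rate constants and dissociation constants.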

[2] = molecular target: T1, SIGLEC-8 transiently expressed on cells (UniProt Q9NYZ4 17-499, limits assumed); experiment: cell binding titration, transient SIGLEC-8 line
T1 construct: whole, on cells; Two cassettes are described (P2A mVenus and direct mVenus fusion); also called the transient line; pTT5-SIGLEC-8 P2A mVenus
T1 sequence (Q9NYZ4 17-499 limits assumed): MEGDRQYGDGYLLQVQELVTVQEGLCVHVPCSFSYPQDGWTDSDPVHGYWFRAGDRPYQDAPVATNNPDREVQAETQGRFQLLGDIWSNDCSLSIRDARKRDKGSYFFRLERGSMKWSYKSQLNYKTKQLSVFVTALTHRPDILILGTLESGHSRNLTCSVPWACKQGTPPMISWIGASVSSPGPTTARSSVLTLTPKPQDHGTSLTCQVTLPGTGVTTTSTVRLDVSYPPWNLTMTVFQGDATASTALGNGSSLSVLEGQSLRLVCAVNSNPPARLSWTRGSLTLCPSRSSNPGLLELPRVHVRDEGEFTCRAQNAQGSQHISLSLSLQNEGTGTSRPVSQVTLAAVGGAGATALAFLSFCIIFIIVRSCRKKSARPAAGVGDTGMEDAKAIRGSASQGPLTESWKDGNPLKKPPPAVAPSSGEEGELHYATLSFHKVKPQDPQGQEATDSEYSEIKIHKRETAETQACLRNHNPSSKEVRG

Sialic acid-binding immunoglobulin-like lectin 8 (SIGLEC-8), antigen of the Carterra SPR studies, sequence (Q9NYZ4 17-363 limits assumed): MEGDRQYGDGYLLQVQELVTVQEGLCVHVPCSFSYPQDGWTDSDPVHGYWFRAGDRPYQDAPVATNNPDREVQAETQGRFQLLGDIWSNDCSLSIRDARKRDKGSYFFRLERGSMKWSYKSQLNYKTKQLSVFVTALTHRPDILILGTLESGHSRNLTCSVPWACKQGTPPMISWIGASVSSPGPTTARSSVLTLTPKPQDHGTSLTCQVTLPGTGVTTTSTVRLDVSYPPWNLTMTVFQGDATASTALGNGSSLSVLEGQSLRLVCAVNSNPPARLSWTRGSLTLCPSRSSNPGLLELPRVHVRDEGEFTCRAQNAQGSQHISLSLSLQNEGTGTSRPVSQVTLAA

B1: SIGLEC-8-46 (antibody, human IgG1, kappa, V domains shown)
VH: EVQLLESGGGLVQPGGSLRLSCAASGLTFSRYAMSWVRQAPGKGLEWVSTVSGSGVSTYYADSVKGRFTISRDNSKNTLYLQMNSLRAEDTAVYYCARARGGSSRYYYGMDVWGQGTLVTVSS
VL: DIQMTQSPSSLSASVGDRVTITCRASQTIDKYLNWYQQKPGKAPKLLIYGASRLQNGVPSRFSGSGSGTDFTLTISSLQPEDFATYYCQQSYTTPTFGGGTKVEIKR
notes: tested as expressed and purified mAb
- Kd [1]: 152000 nM
- EC50 [2]: 32.8 nM

B2: SIGLEC-8-33 (antibody, human IgG1, kappa, V domains shown)
VH: EVQLLESGGGLVQPGGSLRLSCAASGFAFSDYAMSWVRQAPGKGLEWVSAITGSGDYTYYADSVKGRFTISRDNSKNTLYLQMNSLRAEDTAVYYCARDTGGMDVWGQGTLVTVSS
VL: DIQMTQSTSSLSASVGDRVTITCRASQSIHSYLNWYQQKPGKAPILIYAASSLERGVPSRFSGSGSGTDFTLTISSLQPEDFATYYCQQSYITPYSFGGGTKVEIKR
notes: as for B1
- Kd [1]: 2.5 nM
- EC50 [2]: 133 nM

B3: SIGLEC-8-50 (antibody, human IgG1, kappa, V domains shown)
VH: EVQLLESGGGLVQPGGSLRLSCAASGFTLSNYAMTWVRQAPGKGLEWVSTVSGSGASTYYADSVKGRFTISRDNSKNTLYLQMNSLRAEDTAVYYCAREDSGKYLSLDYWGQGTLVTVSS
VL: DIQMTQSPSSLSASVGDRVTITCRASQSIGSYLNWYQQKPGKAPKLLIYSASSLQTGVPSRFSGSGSGTDFTLTISSLQPEDFATYYCQQTYNTPITFGGGTKVEIKR
notes: as for B1
- Kd [1]: 1.21 nM
- EC50 [2]: 1.15 nM

B4: SIGLEC-8-25 (antibody, human IgG1, kappa, V domains shown)
VH: EVQLLESGGGLVQPGGSLRLSCAASGFTFSKYAMDWVRQAPGKGLEWVSDISGSGGTTYYADSVKGRFTISRDNSKNTLYLQMNSLRAEDTAVYYCVRAGLVGYDFDIWGQGTLVTVSS
VL: DIQMTQSPSSLSASVGDRVTITCRASESISSYLNWYQQKPGKAPKLLIYGASILQGGVPSRFSGSGSGTDFTLTISSLQPEDFATYYCQQSYSFPITFGGGTKVEIKR
notes: as for B1
- Kd [1]: 50.6 nM
- EC50 [2]: 7.63 nM

B5: SIGLEC-8-28 (antibody, human IgG1, kappa, V domains shown)
VH: EVQLLESGGGLVQPGGSLRLSCAASGSPFSNYAMSWVRQAPGKGLEWVSSISGGGASTYYADSVKGRFTISRDNSKNTLYLQMNSLRAEDTAVYYCAREKDNSWFGMDVWGQGTLVTVSS
VL: DIQMTQSPSSLSASVGDRVTITCRASQSIDRYLNWYQQKPGKAPKLLIYGASTLQTGVPSRFSGSGSGTDFTLTISSLQPEDFATYYCQQTYSTPITFGGGTKVEIKR
notes: as for B1
- Kd [1]: 3.49 nM
- EC50 [2]: 1.02 nM

B6: SIGLEC-8-15 (antibody, human IgG1, kappa, V domains shown)
VH: EVQLLESGGGLVQPGGSLRLSCAASGFTFSTYTMNWVRQAPGKGLEWVSVISGSGDDTYYADSVKGRFTISRDNSKNTLYLQMNSLRAEDTAVYYCTRAGEQHHYYGMDVWGQGTLVTVSS
VL: DIQMTQSPSSLSASVGDRVTITCRASQTISTSLNWYQQKPGKAPKLLIYGASTLQRGVPSRFSGSGSGTDFTLTISSLQPEDFATYYCRQSYSTPITFGGGTKVEIKR
notes: as for B1
- Kd [1]: 2.57 nM

B7: SIGLEC-8-39 (antibody, human IgG1, kappa, V domains shown)
VH: EVQLLESGGGLVQPGGSLRLSCAASGFTFSRYGMSWVRQAPGKGLEWVSATSGSGGTTYYADSVKGRFTISRDNSKNTLYLQMNSLRAEDTAVYYCARVGGSGWYPNDYWGQGTLVTVSS
VL: DIQMTQSPSSLSASVGDRVTITCRASQSVSRFLNWYQQKPGKAPKLLIYGASTLQTGVPSRFSGSGSGTDFTLTISSLQPEDFATYYCQQSYTTPHTFGGGTKVEIKR
notes: as for B1
- Kd [1]: 159 nM
- EC50 [2]: 4.47 nM

B8: SIGLEC-8-14 (antibody, human IgG1, kappa, V domains shown)
VH: EVQLLESGGGLVQPGGSLRLSCAASGFSFSNHAMTWVRQAPGKGLEWVSGISGSSGSTYYADSVKGRFTISRDNSKNTLYLQMNSLRAEDTAVYYCAREGRVAAYFDSWGQGTLVTVSS
VL: DIQMTQSPSSLSASVGDRVTITCRASQGISGYLNWYQQKPGKAPKLLIYGASRLQNGVPSRFSGSGSGTDFTLTISSLQPEDFATYYCQQSYTTPITFGGGTKVEIKR
notes: as for B1
- Kd [1]: 65.4 nM
- EC50 [2]: 20.8 nM

B9: SIGLEC-8-3 (antibody, human IgG1, kappa, V domains shown)
VH: EVQLLESGGGLVQPGGSLRLSCAASGFTFSTYDMTWVRQAPGKGLEWVSSIGGSGRSTYYADSVKGRFTISRDNSKNTLYLQMNSLRAEDTAVYYCARGSASAWFAFDYWGQGTLVTVSS
VL: DIQMTQSPSSLSASVGDRVTITCRASQSIARYLNWYQQKPGKAPKLLIYGASDLQSGVPSRFSGSGSGTDFTLTISSLQPEDFATYYCQQSYRTSYTFGGGTKVEIKR
notes: as for B1
- Kd [1]: 242 nM
- EC50 [2]: 6.46 nM

B10: SIGLEC-8-16 (antibody, human IgG1, kappa, V domains shown)
VH: EVQLLESGGGLVQPGGSLRLSCAASGFTFSDYGMSWVRQAPGKGLEWVLAISGSGATTYYADSVKGRFTISRDNSKNTLYLQMDSLRAEDTAVYYCAREGGSTYYSLDYWGQGTLVTVSS
VL: DIQMTQSPSSLSASVGDRVTITCRTSQSIGSYLNWYQQKPGKAPKLLIYATSNLHSGVPSRFSGSGSGTDFTLTISSLQPEDFATYYCQQSYKTPYTFGGGTKVEIKR
notes: as for B1
- Kd [1]: 2.02 nM
- EC50 [2]: 2.87 nM

B11: SIGLEC-8-49 (antibody, human IgG1, kappa, V domains shown)
VH: EVQLLESGGGLVQPGGSLRLSCAASGFTFSTYAMHWVRQAPGKGLEWVSTISASGGSTYYADSVKGRFTISRDNSKNTLYLQMNSLRAEDTAVYYCAKSGGADYYYYGMDVWGQGTLVTVSS
VL: DIQMTQSPSSLSASVGDRVTITCRASQSIGYYLNWYQQKPGKAPKLLIYGTSSLQSGVPSRFSGSGSGTDFTLTISSLQPEDFATYYCQQSYSTPLNFGGGTKVEIKR
notes: as for B1
- Kd [1]: 88.8 nM
- EC50 [2]: 1.4 nM

B12: SIGLEC-8-9 (antibody, human IgG1, kappa, V domains shown)
VH: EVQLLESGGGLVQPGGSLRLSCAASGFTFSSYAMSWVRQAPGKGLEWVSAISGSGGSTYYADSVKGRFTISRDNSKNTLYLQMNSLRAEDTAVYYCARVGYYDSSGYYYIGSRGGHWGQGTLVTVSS
VL: DIQMTQSPSSLSASVGDRVTITCRTSQTISTYLNWYQQKPGKAPKLLIYDASDLQSGVPSRFSGSGSGTDFTLTISSLQPEDFATYYCQQNYITPNTFGGGTKVEIKR
notes: as for B1
- Kd [1]: 8080 nM
- EC50 [2]: 1590 nM

B13: SIGLEC-8-2 (antibody, human IgG1, kappa, V domains shown)
VH: EVQLLESGGGLVQPGGSLRLSCAASGFTFSKHAMSWVRQAPGKGLEWVSGISGSGARTYYADSVKGRFTISRDNSKNTLYLQMNSLRAEDTAVYYCARQSRGGSLGMDVWGQGTLVTVSS
VL: DIQMTQSPSSLSASVGDRVTITCRASQRISSYLNWYQQKPGKAPKLLIYGASILQTGVPSRFSGSGSGTDFTLTINSLQPEDFATYYCQESYSTPFTFGGGTKVEIKR
notes: as for B1
- Kd [1]: 160000 nM
- EC50 [2]: 8.28 nM

B14: SIGLEC-8-6 (antibody, human IgG1, kappa, V domains shown)
VH: EVQLLESGGGLVQPGGSLRLSCAASGFSFSSYGMSWVRQAPGKGLEWVSTISGSGGGTYYADSVKGRFTISRDNSKNTLYLQMNSLRAEDTAVYYCAREESGKYLSLDHWGQGTLVTVSS
VL: DIQMTQSPSSLSASVGDRVTITCRASQTIRSYLNWYQQKPGKAPKLLIYAASSLHTGVPSRFSGSGSGTDFTLTISSLQPEDFATYYCQQSYTTPITFGGGTKVEIKR
notes: as for B1
- Kd [1]: 4.68 nM
- EC50 [2]: 2.43 nM

B15: SIGLEC-8-51 (antibody, human IgG1, kappa, V domains shown)
VH: EVQLLESGGGLVQPGGSLRLSCAASGFTFPRYGMSWVRQAPGKGLEWVTATSGSGGTTYYADSVKGRFTISRDNSKNTLYLQMNSLRAEDTAVYYCARDESSGWYPKDYWGQGTLVTVSS
VL: DIQMTQSPSSLSASVGDRVTITCRASQSVSRFLNWYQQKPGKAPKLLIYGASNLEGGVPSRFSGSGSGTDFTLTISSLQPEDFATYYCQQSYTTPHTFGGGTKVEIKR
notes: as for B1
- Kd [1]: 10 nM

B16: SIGLEC-8-29 (antibody, human IgG1, kappa, V domains shown)
VH: EVQLLESGGGLVQPGGSLRLSCAASGFTFSRHAMTWVRQAPGKGLEWVSAISSSGDNTYYVDSVKGRYTISRDNSKNTLYLQMNSLRAEDTAVYYCARIHRNGHAFDIWGQGTLVTVSS
VL: DIQMTQSPSSLSASVGDRVTITCRASQSIHTYLNWYQQKPGKAPKLLIYGASTLRSGVPSRFSGSGSGTDFTLTISSLQPEDFATYYCQQSYSTPLLTFGGGTKVEIKR
notes: as for B1
- Kd [1]: 326 nM
- EC50 [2]: 355 nM

B17: SIGLEC-8-13 (antibody, human IgG1, kappa, V domains shown)
VH: EVQLLESGGGLVQPGGSLRLSCAASGFTFSSYDMNWVRQAPGKGLEWVSAISGSGVGTYYADSVKGRFTISRDNSKNTLYLQMNSLRAEDTAVYYCSKDVRWSPGGMDVWGQGTLVTVSS
VL: DIQMTQSPSSLSASVGDRVTITCRASQSVSIYLNWYQQKPGKAPKLLIYATSNLHSGVPSRFSGSGSGTDFTLTISSLQPEDFATYYCQQSHSTPYTFGGGTKVEIKR
notes: as for B1
- binding result [1]: no binding
- EC50 [2]: 50.7 nM

B18: SIGLEC-8-38 (antibody, human IgG1, kappa, V domains shown)
VH: EVQLLESGGGLVQPGGSLRLSCAASGFTFSPYAMSWVRQAPGKGLEWVSGIGGSGGSTYYADSVKGRFTISRDNSKNTLYLQMNSLRAEDTAVYYCARDYGGYYFDYWGQGTLVTVSS
VL: DIQMTQSPSSLSASVGDRVTITCRASQYISNYLNWYQQKPGKAPKLLIYATSTLESGVPSRFSGSGSGTDFTLTISSLQPEDFATYYCQQGYSVPWTFGGGTKVEIKR
notes: as for B1
- Kd [1]: 46200 nM
- EC50 [2]: 10.6 nM

B19: SIGLEC-8-23 (antibody, human IgG1, kappa, V domains shown)
VH: EVQLLESGGGLVQPGGSLRLSCAASGLTFSSYAMSWVRQAPGKGLEWVSAISGSGVGTYYADSVKGRFTISRDNSKNTLYLQMNSLRAEDTAVYYCAKHTSSSWYPLDYWGQGTLVTVSS
VL: DIQMTQSPSSLSASVGDRVTITCRSSQSITTYLNWYQQKPGKAPKLLIYAASNLYSGVPSRFSGSGSGTDFTLTISSLQPEDFATYYCQQSHTTPLTFGGGTKVEIKR
notes: as for B1
- Kd [1]: 10.1 nM
- EC50 [2]: 0.855 nM

B20: SIGLEC-8-47 (antibody, human IgG1, kappa, V domains shown)
VH: EVQLLESGGGLVQPGGSLRLSCAASGFTFSTHAMSWVRQAPGKGLEWVSTISGSGDITYYADSVKGRFTISRDNSKNTLYLQMNSLRAEDTAVYYCARQSRGGSLGMDVWGQGTLVTVSS
VL: DIQMTQSPSSLSASVGDRVTITCRASQTISRYLNWYQQKPGKAPKLLIYAASNLYSGVPSRFSGSGSGTDFTLTISSLQPEDFATYYCQQSFATPYTFGGGTKVEIKR
notes: as for B1
- Kd [1]: 32.7 nM
- EC50 [2]: 1.88 nM

Reference: patent US20260001953A1 (TWIST BIOSCIENCE, published 2026)
